# Reference: the domain aggregation screens of Martell et al. (2025)
# Experiment: soluble fraction after stress (log2 fold change); higher = more stays soluble; pooled small domains, quantitative proteomics
# Details: stress: 50 degC
# Summary of the method: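 After stress at 50°C, the amount of each protein still soluble was measured. This was done on pooled custom libraries of small protein domains, using high-throughput quantitative proteomics. The figure given is a base-two log fold change and stands for aggregation propensity, with higher values meaning more protein stays in solution.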
row,Sequence,soluble fraction (log2)
1,HMETGGLAQEAERELALLQEQIAHHEALYRKGTPEISDGAFDELFDRYQELADSLGVPADERIDRA,-0.0378
2,HMGVDIAEHDGQPAVSIRKGAAESVAQWVKDQGGTFPQEVEMTVQNVARAGGTPLVVARGRDVLGVIYLKD,0.0501
3,HMNYKNAIGQVGSVYVPIPPNREGLGQIEVKVQSRVSTVRAVSDHSERLENRVAVRVIELVDDRTLLVEKL,-0.839
4,HMDMPLIGTAIRGWGIISPAQQETLIKMSILTVEDLAAINDEGIKRIGMGGLDLKNKAKAWLLQLK,-0.751
5,HMLVGRDPQALILGSMPSEKSLEEDEYYAHPRNRFWSLMNWLLAGNKTRPAYKTGIEILSSHGIALWV,-0.263
6,HMYLELVTKEGGSFDEPDYWGRRKLAYEIAGKTEGNYVVVKYTAEPATSDELDRVLNLNESVIRTKILRK,0.0508
7,HMTNTWNNIVERNDLFFKKFTNTPFNGKIETYWPNGNLKETGIITDGKKDNLWEYYYENGNPKEVEF,-0.397
8,HMKGEKVTKIELSNFIKFLINDLENKGFFNPPEKKDSMIDNIYSIYNKMTLTKKELNMLWGMHKKLK,-1.44
9,HMRHYVLKENNGVIAIYKVNQENEAVFKENTQIQVQYLPEVDLINLKKGIYAIGEEKLNSILEDF,-0.613
10,HMLSTGQLIRYYRKRAGMTQAELAEEVEMSEPGIRNYELGNRTPSKAQLSAIARGLGIEPEALI,-0.48
11,HMIEDMQQYIKEIRQMVSGRLDMTRNLEDEEIRDTIAELVAEESRKQYMTLTEKREVIEGVFNSMR,-0.0273
12,HMVSKTEAMAVFIADKLQEGMVPANEILELYKGMQLSDRTIRNAKKQLGIVSIRKDGQWYWSL,-1.19
13,HMDSATDRVALKELLNTLSARERTIITLRYFSDQTQTQVAKSLGISQVQVSRLENAILQRLRKL,-1.94
14,HMKEVDERPWGKYEVLLDAPDVKVKRITVNPGQRLSYQYHEKRAEVWTVVSGILTIILEDDKLFRG,0.237
15,HMELDFNSVYRQLNHEQKQAYQSIKSVLEQKISGSELDKKLKQAQQAFVAKFKENPNFEVPK,0.31
16,HMTNELTEIFNSIRLTKKQKELLQSNYLSLRETYFLQGKTAFNLKFKNIAGLGKSTKKVLLEFFEESIE,-1.83
17,HMPSLSAILHDARVAAGLSMRQASAASGLSIGFISMLEQGKVQDISLQRLGRLVTAYDLEPLDVIEAAG,-1.55
18,HMGDLVFDFVHGVHKAAEVEKELVMQALRFTHGNVSRAARLIGMQRSSLRYRIERYRLDAFVMEVAN,0.3
19,HMSTTYAPYLLGETEQEAIRMARNAGLDPQVVRQSDKSEAGTVILQSHDFGFAMKRGAVILITVSSGPLQ,-1.44

row,Sequence,soluble fraction (log2)
1,HMGGFNATTLQNIEELRRSLSDADQFGRHEVIETIGGSDSRAGKLLKKMLEAGIIEQVKGHGKGRYRFKRT,-0.0136
2,HMTIPSYAEAVRYVRRQPRINTSTLADGLGIRWSLALDYLERMARSGVVGAIEDDGWWPVAR,-0.71
3,HMDERLAKLTPQERKILDLIAEGATNRQIGTELHLAEKTVKNYVSNMLMKLGMSRRTEAAVFAVKASIN,-0.64
4,HMPFREGDEVFVELVEPHMYNEDDAVAKLDGYVVAVRGAAGLVGQKVLVRIERVGRSSAEATLVA,0.109
5,HMEFPYISGVDVGTISNKEFARFETTKASDIVIALDKSGIPFSARFGDSEIVLTYDGSYKEEVEEIIAKV,0.0138
6,HMESENANVNRAMLTGIASMHAGQLETALNKFNEVIQLAPDFAEGWNKRATIFYLMKKFDRSVNDIAQTLK,-0.0738
7,HMDLPATVPNLEGLTEVTARNKLTVAGLSLGEVKEVESDKEKGTVVGQSIAYGKRVTKGTKVDIEISSGK,0.0361
8,HMPFNREYWIEQLLKEVGLMGTPYAELDKHEVELDSPTGRASGFKVNAKTYVDQQLLFIENEYNNQPE,-0.153
9,HMNRTKYYDFEGHPAKVVRLTLPVYLNKIGDEVVVYDSQKFAREASPISESQYNRMVAEIFQP,-0.354
10,HMNLGETIYNLRKEKKLSQGDLAEQLSVSRQSVSKWENNSAVPDLDKLVKLSTIFGVSLDELVKG,0.0247
11,HMRTVEQFQIRKIYAISNALGISDSRADEDELHVLVSGLTGKDSIKELTYREASVVIERLEELQ,-2.54
12,HMEYTTEELDSLLKLYFQTHESINRNEFEQLTSYTRTTASRRLKTLVQAGKLQNIGLYRFPVYKPTEGNF,-2.49
13,HMYFNTADLKADSIHYGSTEQSVIKILGEPEYRETFVDNNVSYELFSYKGNLLLSFVENSLVSL,0.0896
14,HMAADRRKAERPLIDGQAVMDRFEVGPGPMVGKALKFLLALKRAEPDLDLAGTEERLDAWWNEQL,0.262
15,HMRLPVELTDREVEVLRLLAQAMSNGEIARELYIGEATVKTHVSNVLQKLGARDRVAAVVWAHRYGL,-1.59
16,HMNVEGEVVVPNVIGRTMKDVAVILSDLGLRMEAEGTGVAKSSQPQHGTSVKRGTVVQVRFEPLSVN,0.141
17,HMDTSAHEVLSAIRSIIEDEDKRHPLSDEAITSRLSQQGYDIARRTVAKYRERLGLPVARLRRE,-0.0213
18,HMELEAFPNPTDMFLSFTTKEKTPLAIYDINGKQVLYVEQITSSSKINVSKLSEGVYFAKTNQGTVKWVK,-1.67
19,HMNGAAAEQARKQLMTALKASEFIAQDKLDEWLDALALPQEKRSAIIDAVDELDYEEAISELEN,-0.0176
